In patent US20250145729A1 (DENALI THERAPEUTICS, published 2025):

T1: circularly permuted human TfR apical domain (human)
T1 construct: TfR residues 326-379 stand N-terminal to 194-296, loop 297-325 deleted; also called huTfR Apical Domain
T1 chain: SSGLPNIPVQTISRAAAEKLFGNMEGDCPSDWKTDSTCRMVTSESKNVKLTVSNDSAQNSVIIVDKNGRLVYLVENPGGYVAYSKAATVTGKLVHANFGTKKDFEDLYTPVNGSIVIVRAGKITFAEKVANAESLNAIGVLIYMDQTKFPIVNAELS

T2: circularly permuted cyno TfR apical domain (cynomolgus monkey)
T2 construct: same design as the human construct; also called cyTfR Apical Domain; cynomolgus TfR apical domain
T2 chain: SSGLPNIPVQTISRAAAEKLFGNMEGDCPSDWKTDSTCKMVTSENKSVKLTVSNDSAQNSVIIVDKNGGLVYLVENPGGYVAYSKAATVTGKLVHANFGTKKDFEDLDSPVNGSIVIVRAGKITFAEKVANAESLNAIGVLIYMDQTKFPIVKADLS


Tests used:
[1] = target: T1, circularly permuted human TfR apical …; assay: SPR, supernatant, anti-Fab capture
Description: (§1) Clones were expressed in HEK293 cells. Supernatants were captured for SPR by GE Healthcare anti-human Fab capture kit and the affinity to human and cyno TfR apical domain was measured (Table 30). The clones in Table 30 were bivalent and each TfR-binding Fc polypeptide also contained P329G and LALA mutations.

[2] = target: T2, circularly permuted cyno TfR apical …; assay: SPR, supernatant, anti-Fab capture
Description: as §1

Binder	Kd [1] [µM]	Kd [2] [µM]
42.8.183 (Fc fusion, bivalent; P329G+LALA) APEAAGGPSVFLFPPKPKDTLMISRTPEVTCVVVDVSHEDPEVKFNWYVDGVEVHNAKTKPREEQYNSTYRVVSVLTVLHQDWLNGKEYKCKVSNKALGAPIEKTISKAKGQPREPQVYTLPPSRDELTKNQVSLTCLVKGFYPSDIAVEWFYEGQKESNYKTTPPVLDSDGSFFLYSKLTVDKSRWQQGNLFACEVMHEALHNHYTYKLLSLSPGK	2.33	15.1
42.8.188 (Fc fusion, bivalent; P329G+LALA) APEAAGGPSVFLFPPKPKDTLMISRTPEVTCVVVDVSHEDPEVKFNWYVDGVEVHNAKTKPREEQYNSTYRVVSVLTVLHQDWLNGKEYKCKVSNKALGAPIEKTISKAKGQPREPQVYTLPPSRDELTKNQVSLTCLVKGFYPSDIAVEWFYEGSKETNYKTTPPVLDSDGSFFLYSKLTVDKSRWQQGNLFACEVMHEALHNHYTYKLLSLSPGK	1.03	12.5
42.8.194 (Fc fusion, bivalent; P329G+LALA) APEAAGGPSVFLFPPKPKDTLMISRTPEVTCVVVDVSHEDPEVKFNWYVDGVEVHNAKTKPREEQYNSTYRVVSVLTVLHQDWLNGKEYKCKVSNKALGAPIEKTISKAKGQPREPQVYTLPPSRDELTKNQVSLTCLVKGFYPSDIAVEWFYEAQKETNYKTTPPVLDSDGSFFLYSKLTVDKSRWQQGNLFACEVMHEALHNHYTYKLLSLSPGK	1.23	11.8
42.8.213 (Fc fusion, bivalent; P329G+LALA) APEAAGGPSVFLFPPKPKDTLMISRTPEVTCVVVDVSHEDPEVKFNWYVDGVEVHNAKTKPREEQYNSTYRVVSVLTVLHQDWLNGKEYKCKVSNKALGAPIEKTISKAKGQPREPQVYTLPPSRDELTKNQVSLTCLVKGFYPSDIAVEWFYEDSKESNYKTTPPVLDSDGSFFLYSKLTVDKSRWQQGNLFACEVMHEALHNHYTYKLLSLSPGK	0.872	9.79
42.8.187 (Fc fusion, bivalent; P329G+LALA) APEAAGGPSVFLFPPKPKDTLMISRTPEVTCVVVDVSHEDPEVKFNWYVDGVEVHNAKTKPREEQYNSTYRVVSVLTVLHQDWLNGKEYKCKVSNKALGAPIEKTISKAKGQPREPQVYTLPPSRDELTKNQVSLTCLVKGFYPSDIAVEWFYEGSKENNYKTTPPVLDSDGSFFLYSKLTVDKSRWQQGNLFACEVMHEALHNHYTYKLLSLSPGK	1.6	13.4
42.8.192 (Fc fusion, bivalent; P329G+LALA) APEAAGGPSVFLFPPKPKDTLMISRTPEVTCVVVDVSHEDPEVKFNWYVDGVEVHNAKTKPREEQYNSTYRVVSVLTVLHQDWLNGKEYKCKVSNKALGAPIEKTISKAKGQPREPQVYTLPPSRDELTKNQVSLTCLVKGFYPSDIAVEWFYEGSKLSNYKTTPPVLDSDGSFFLYSKLTVDKSRWQQGNLFACEVMHEALHNHYTYKLLSLSPGK	0.761	11.3
42.8.189 (Fc fusion, bivalent; P329G+LALA) APEAAGGPSVFLFPPKPKDTLMISRTPEVTCVVVDVSHEDPEVKFNWYVDGVEVHNAKTKPREEQYNSTYRVVSVLTVLHQDWLNGKEYKCKVSNKALGAPIEKTISKAKGQPREPQVYTLPPSRDELTKNQVSLTCLVKGFYPSDIAVEWFYEGSKESNYKTTPPVLDSDGSFFLYSKLTVDKSRWQQGNLFACEVMHEALHNHYTYKLLSLSPGK	1.1	13.5
42.8.207 (Fc fusion, bivalent; P329G+LALA) APEAAGGPSVFLFPPKPKDTLMISRTPEVTCVVVDVSHEDPEVKFNWYVDGVEVHNAKTKPREEQYNSTYRVVSVLTVLHQDWLNGKEYKCKVSNKALGAPIEKTISKAKGQPREPQVYTLPPSRDELTKNQVSLTCLVKGFYPSDIAVEWFYEDQKESNYKTTPPVLDSDGSFFLYSKLTVDKSRWQQGNLFACEVMHEALHNHYTYKLLSLSPGK	1.2	13.8
42.8.185 (Fc fusion, bivalent; P329G+LALA) APEAAGGPSVFLFPPKPKDTLMISRTPEVTCVVVDVSHEDPEVKFNWYVDGVEVHNAKTKPREEQYNSTYRVVSVLTVLHQDWLNGKEYKCKVSNKALGAPIEKTISKAKGQPREPQVYTLPPSRDELTKNQVSLTCLVKGFYPSDIAVEWFYEGQKLTNYKTTPPVLDSDGSFFLYSKLTVDKSRWQQGNLFACEVMHEALHNHYTYKLLSLSPGK	1.85	13.3
42.8.184 (Fc fusion, bivalent; P329G+LALA) APEAAGGPSVFLFPPKPKDTLMISRTPEVTCVVVDVSHEDPEVKFNWYVDGVEVHNAKTKPREEQYNSTYRVVSVLTVLHQDWLNGKEYKCKVSNKALGAPIEKTISKAKGQPREPQVYTLPPSRDELTKNQVSLTCLVKGFYPSDIAVEWFYEGQKLNNYKTTPPVLDSDGSFFLYSKLTVDKSRWQQGNLFACEVMHEALHNHYTYKLLSLSPGK	1.68	17
42.8.195 (Fc fusion, bivalent; P329G+LALA) APEAAGGPSVFLFPPKPKDTLMISRTPEVTCVVVDVSHEDPEVKFNWYVDGVEVHNAKTKPREEQYNSTYRVVSVLTVLHQDWLNGKEYKCKVSNKALGAPIEKTISKAKGQPREPQVYTLPPSRDELTKNQVSLTCLVKGFYPSDIAVEWFYEAQKESNYKTTPPVLDSDGSFFLYSKLTVDKSRWQQGNLFACEVMHEALHNHYTYKLLSLSPGK	1.23	13.3
42.8.199 (Fc fusion, bivalent; P329G+LALA) APEAAGGPSVFLFPPKPKDTLMISRTPEVTCVVVDVSHEDPEVKFNWYVDGVEVHNAKTKPREEQYNSTYRVVSVLTVLHQDWLNGKEYKCKVSNKALGAPIEKTISKAKGQPREPQVYTLPPSRDELTKNQVSLTCLVKGFYPSDIAVEWFYEASKENNYKTTPPVLDSDGSFFLYSKLTVDKSRWQQGNLFACEVMHEALHNHYTYKLLSLSPGK	0.869	8.05

Next, values leading:

Kd [1] [µM]	Kd [2] [µM]	Binder
0.446	7.41	42.8.208 (Fc fusion, bivalent; P329G+LALA) APEAAGGPSVFLFPPKPKDTLMISRTPEVTCVVVDVSHEDPEVKFNWYVDGVEVHNAKTKPREEQYNSTYRVVSVLTVLHQDWLNGKEYKCKVSNKALGAPIEKTISKAKGQPREPQVYTLPPSRDELTKNQVSLTCLVKGFYPSDIAVEWFYEDQKLNNYKTTPPVLDSDGSFFLYSKLTVDKSRWQQGNLFACEVMHEALHNHYTYKLLSLSPGK
0.62	9.37	42.8.212 (Fc fusion, bivalent; P329G+LALA) APEAAGGPSVFLFPPKPKDTLMISRTPEVTCVVVDVSHEDPEVKFNWYVDGVEVHNAKTKPREEQYNSTYRVVSVLTVLHQDWLNGKEYKCKVSNKALGAPIEKTISKAKGQPREPQVYTLPPSRDELTKNQVSLTCLVKGFYPSDIAVEWFYEDSKETNYKTTPPVLDSDGSFFLYSKLTVDKSRWQQGNLFACEVMHEALHNHYTYKLLSLSPGK
0.436	4.63	42.8.204 (Fc fusion, bivalent; P329G+LALA) APEAAGGPSVFLFPPKPKDTLMISRTPEVTCVVVDVSHEDPEVKFNWYVDGVEVHNAKTKPREEQYNSTYRVVSVLTVLHQDWLNGKEYKCKVSNKALGAPIEKTISKAKGQPREPQVYTLPPSRDELTKNQVSLTCLVKGFYPSDIAVEWFYEASKLSNYKTTPPVLDSDGSFFLYSKLTVDKSRWQQGNLFACEVMHEALHNHYTYKLLSLSPGK
0.647	4.91	42.8.201 (Fc fusion, bivalent; P329G+LALA) APEAAGGPSVFLFPPKPKDTLMISRTPEVTCVVVDVSHEDPEVKFNWYVDGVEVHNAKTKPREEQYNSTYRVVSVLTVLHQDWLNGKEYKCKVSNKALGAPIEKTISKAKGQPREPQVYTLPPSRDELTKNQVSLTCLVKGFYPSDIAVEWFYEASKESNYKTTPPVLDSDGSFFLYSKLTVDKSRWQQGNLFACEVMHEALHNHYTYKLLSLSPGK
0.596	7.88	42.8.210 (Fc fusion, bivalent; P329G+LALA) APEAAGGPSVFLFPPKPKDTLMISRTPEVTCVVVDVSHEDPEVKFNWYVDGVEVHNAKTKPREEQYNSTYRVVSVLTVLHQDWLNGKEYKCKVSNKALGAPIEKTISKAKGQPREPQVYTLPPSRDELTKNQVSLTCLVKGFYPSDIAVEWFYEDQKLSNYKTTPPVLDSDGSFFLYSKLTVDKSRWQQGNLFACEVMHEALHNHYTYKLLSLSPGK
0.505	6.27	42.8.202 (Fc fusion, bivalent; P329G+LALA) APEAAGGPSVFLFPPKPKDTLMISRTPEVTCVVVDVSHEDPEVKFNWYVDGVEVHNAKTKPREEQYNSTYRVVSVLTVLHQDWLNGKEYKCKVSNKALGAPIEKTISKAKGQPREPQVYTLPPSRDELTKNQVSLTCLVKGFYPSDIAVEWFYEASKLNNYKTTPPVLDSDGSFFLYSKLTVDKSRWQQGNLFACEVMHEALHNHYTYKLLSLSPGK
0.421	5.85	42.8.216 (Fc fusion, bivalent; P329G+LALA) APEAAGGPSVFLFPPKPKDTLMISRTPEVTCVVVDVSHEDPEVKFNWYVDGVEVHNAKTKPREEQYNSTYRVVSVLTVLHQDWLNGKEYKCKVSNKALGAPIEKTISKAKGQPREPQVYTLPPSRDELTKNQVSLTCLVKGFYPSDIAVEWFYEDSKLSNYKTTPPVLDSDGSFFLYSKLTVDKSRWQQGNLFACEVMHEALHNHYTYKLLSLSPGK
0.755	11.4	42.8.197 (Fc fusion, bivalent; P329G+LALA) APEAAGGPSVFLFPPKPKDTLMISRTPEVTCVVVDVSHEDPEVKFNWYVDGVEVHNAKTKPREEQYNSTYRVVSVLTVLHQDWLNGKEYKCKVSNKALGAPIEKTISKAKGQPREPQVYTLPPSRDELTKNQVSLTCLVKGFYPSDIAVEWFYEAQKLTNYKTTPPVLDSDGSFFLYSKLTVDKSRWQQGNLFACEVMHEALHNHYTYKLLSLSPGK
